Measurements as given in the nanobody polyreactivity screen of Harvey et al. (2022).

Test: yeast display, Sf9 membrane polyspecificity reagent, FACS + sequencing; frameworks hold sequencing errors
In short: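 Galactose-induced (36–48 hours) yeast carrying a synthetic nanobody display library were exposed to 10% biotinylated, detergent-solubilized Sf9 membrane reagent at 4 °C for 1 hour. FACS followed streptavidin microbead enrichment, using low and high (top ~1%) gates for expression (anti-HA) and reagent binding (streptavidin). Colony PCR, MiSeq 2 × 250 sequencing and CDR-length filtering followed. Labels for polyreactivity reflect the gate of origin.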

Sequence | polyreactivity (PSR sort gate)
QVQLVESGGGLVQAGGSLRLSCAASGRTFSWYAMGWYRQAPGKERELVAAITSDGSPYYADSVKGRFTISRDNAKNTVYLQMNSLKPEDTAVYYCAADTVYRSYYWGQGTQVTVSS | low polyreactivity
QVQLVESGGGLVQAGGSLRLSCAASGRTFSWYAMGWYRQAPGKERELVAAITSVGSTNYADSVKGRFTISRDNAKNTVYLQMNSLKPEDTAVYYCAATIFVYSYRYYYWGQGTQVTVSS | low polyreactivity
QVQLVESGGGLVQAGGSLRLSCAASGRTFSYNAMGWYRQAPGKERELVAAISYDGGRTYYADSVKGRFTISRDNAKNTVYLQMNSLKPEDTAVYYCAAYPYRGPHPWTIGDYWGQGTQVTVSS | low polyreactivity
QVQLVESGGGLVQAGGSLRLSCAASGRTFSYYAMGWYRQAPAKERELVAAIRSTGSTNYADSVKGRFTISRDNAKNTVYLQMNSLKPEDTAVYYCAARKYYQRGYDYWGQGTQVTVSS | high polyreactivity
QVQLVESGGGLVQAGGSLRLSCAASGRTFSYYAMGWYRQAPGKEREFVAAISSTGTSTYYADSVKGRFTISRDNAKNTFSLQMNRLKPEDTAVYYCNARVATYRLHSKFYYWGQGTQVTVSS | high polyreactivity
QVQLVESGGGLVQAGGSLRLSCAASGRTFSYYAMGWYRQAPGKERELVAAISRSGVTTHYADSVKGRFTISRDNAKNTVYLQMNSLKTEDTAVYYCNKVYYYVGTLDYWGQGTQVTVSS | high polyreactivity
QVQLVESGGGLVQAGGSLRLSCAASGRTFSYYAMGWYRQAPGKERELVAAISSGGSTNYADSVKGRFTISRDNAKNTVYLQMNSLKPEDTAVYYCATSSICGSGRVRWVTYYYWGQGTQVTVSS | low polyreactivity
QVQLVESGGGLVQAGGSLRLSCAASGRTFSYYAMGWYRQAPGKERELVAAITSGGGRTYYADSVKGRFTISRDNAKNTVYLQMNSLKPEDTAVYYCNKAYVSRYDYWGQGTQVTVSS | high polyreactivity
QVQLVESGGGLVQAGGSLRLSCAASGRTFSYYAMGWYRQAPGKERELVAAITSSGGRTTYADSVKGRFTISRDNAKNTVYLQMNSLKPEDTAVYYCAARHTYQGPGTYPMYYWGQGTQVTVSS | high polyreactivity
QVQLVESGGGLVQAGGSLRLSCAASGRTFSYYAMGWYRQAPGKERELVASINWSGGSTYYADSVKGRFTISRDNAKNTVYLQMNSLKPEDTAVYYCAADSWPFGYYYWGQGTQVTVSS | high polyreactivity
QVQLVESGGGLVQAGGSLRLSCAASGRTFSYYSMGWYRQAPGKERELVAAITSGGGRTYYADSVKGRFTISRDNAKNTVYLQMNRLKPEDTAVYYCNALYTLYNGYDYWGQGTQVTVSS | high polyreactivity
QVQLVESGGGLVQAGGSLRLSCAASGRTFSYYTMGWYRQAPGKERELVAAITSSGGSTYYADSVKGRFTISRDNAKNTVYLQMNSLKPEDTAVYYCAVLNYWAMDYWGQGTQVTVSS | high polyreactivity
QVQLVESGGGLVQAGGSLRLSCAASGRTFTAYTMGWYRQAPGKERELVASISSGVTYADSVKGRFTISRDNAKNTVYVQMNSLKPEDTAVYYCAARLWYVQGYVPYVHHRFDYWGQGTQVTVSS | low polyreactivity
QVQLVESGGGLVQAGGSLRLSCAASGRTFTAYTMGWYRQAPGKERELVDSISSGVTYADSVKGRFTISRDNAKNTVYLQMNSLKPEDTAVYYCAARLWYVQGYVPYVHHRFDYWGQGTQVTVSS | low polyreactivity
QVQLVESGGGLVQAGGSLRLSCAASGRTFTDYTMGWSRQAPGKERELVASISSGVTYADSVKGRFTISRDNAKYTVYLQMNSLKPEDTEVYYCAARLWYVQGYVPYVHHRFDYWGQGTQVTVSS | low polyreactivity
QVQLVESGGGLVQAGGSLRLSCAASGRTFTFNAMGWYRQAPGKERELVARIDWRGITYADSVKGRFTISRDNAKNTVYLQMNSLKPEDTAVYYCAAVWLHIRGFFFQYDYWGQGTQVTVSS | low polyreactivity
QVQLVESGGGLVQAGGSLRLSCAASGRTFTGSVMGWYRKAPGKERELVAAISWNGGRTYYADSVKGRFTLSRDNAKNTVYLQMYSLKPEDTGVYLCGTYGYNSYDYWGHGTQVTVSS | high polyreactivity
QVQLVESGGGLVQAGGSLRLSCAASGRTFTGYAMGWYRQAPGKEREFVAAITQRGGSTYYADSVKGRFTISRDNEKNTVYLQMNSLKAEDTAVYYCAARRRYKMDYWGQGTQVTVSS | high polyreactivity
QVQLVESGGGLVQAGGSLRLSCAASGRTFTINAMGWYRQAPGKERELVAAITSGGSTNYADSVKGRFTISRDNAKNTVYLQMNSLKPEDTAVYYCNAGYYSRRYYFSGRLDYWGQGTQVTVSS | low polyreactivity
QVQLVESGGGLVQAGGSLRLSCAASGRTFTIYAMGWYRQAPGKEREFVASITGSDGSTYYADSVKGRFTISRDNAKNTVYLQMNSLKPEDTAVYYCAAATSSAYDYWGQGTQVTVSS | low polyreactivity
QVQLVESGGGLVQAGGSLRLSCAASGRTFTIYAMGWYRQAPGKERELVAAISWSDGSTYYADSVKGRFTISRDNAKNTVYLQMNSLKPEDTAVYSCAREVYGDASAPDMDYWGQGTQVTVSS | low polyreactivity
QVQLVESGGGLVQAGGSLRLSCAASGRTFTKYAMGWDRQAPGKERELVAVISVIGGTNYADSVKWRFTISRDNAKNTVYLQMNSLKPEDTAVYYCAAVSREHDYWGQGTQVTVSS | high polyreactivity

Sequence | polyreactivity (PSR sort gate)
QVQLVESGGGLVQAGGSLRLSCAASGRTFTLYAMGWSRPAPGKERELVAAIRWSGSSTYYADSVKGRFTISRDNSKNTVYLQMNSLKPEDTAVYYCAARAGRYDRYGYWGQGTQVTVSS | high polyreactivity
QVQLVESGGGLVQAGGSLRLSCAASGRTFTNNAMGWYRQAPGKERELVARITKTSGSTHYADSVKGRFTNSRDNAKNTVYLQMNSMKPEDTAVYYCATRGHYHGFYYTYPRYDSWGQGTQVTVSS | low polyreactivity
QVQLVESGGGLVQAGGSLRLSCAASGRTFTPNVMGWYRQAPGKERELVAAITQSGGRTYYADSVKGRFTISRDNAKNTVYLQMNSLKPEDTAVYYCNAERAGTYRYDYWGQGTQVTVSS | high polyreactivity
QVQLVESGGGLVQAGGSLRLSCAASGRTFTPYAMGWYRPAPGKERELVATISSGTSTNYADSVKGRVTISRDNAKNTVYLQMNSLKPEDTAVYYCSPSRDTVGRGPIQRDYWGQGTQVTVSS | low polyreactivity
QVQLVESGGGLVQAGGSLRLSCAASGRTFTPYAMGWYRQAPGKERELVAAITSNSGITSYADSVKGRFTISRDNAKNTVYLQMNSLKPEDTAVYYCNADYYRYFRYYYWGQGTQVTVSS | high polyreactivity
QVQLVESGGGLVQAGGSLRLSCAASGRTFTPYTMGWYRQAPGKEREFVAAITVRGGSTYYADSVKGRFTISRDNAKNTVYLQMNSLKPEDTAVYYCAASYVSYRKRDDYWGQGTQVTVSS | high polyreactivity
QVQLVESGGGLVQAGGSLRLSCAASGRTFTQYAMGWYRQAPGKDRELVAAIDYRGSRTYYADSVKGRFTLTRDKAKNTVYLQMNSLKPEDTAVYYCNTVHRFGTYDYWGEGTQVTVSS | high polyreactivity
QVQLVESGGGLVQAGGSLRLSCAASGRTFTRNAMGWYRQAPGKERELVAAITYRAGRTYYADSVKGRFTISRDNAKNTVYLQMNSLKPEDTAVYYCNVVPGASLKEDYWGQGTQVTVSS | low polyreactivity
QVQLVESGGGLVQAGGSLRLSCAASGRTFTRYAMGLYRPAPGKERELVAAISYIGGRTNYADSVKGRFTISRDNAKKTVYLQMHSLKPEDTAVYYCAASRPWVYYDGLVYWGQGTQVTVTS | high polyreactivity
QVQLVESGGGLVQAGGSLRLSCAASGRTFTRYAMGWYRQAPGKERELVAAISGGGGSTYYADSVKGRFTISRDNAKNTVYLQMNSLKPEDTAVYYCAADVTYGTKWAYDYWGQGTQVTVSS | high polyreactivity
QVQLVESGGGLVQAGGSLRLSCAASGRTFTRYAMGWYRQAPGKERELVAAISRSGGSTHYADSVKGRFTISRDKAKNTVYLQMNSLKPEDTAVYYCNAQQGRYWSAKGYDYWGQGTQVTVSS | high polyreactivity
QVQLVESGGGLVQAGGSLRLSCAASGRTFTRYTKGWYRQAPRKERDLVAASTRGGSTYADSVKGRFTNSRDNAKNTVYLEMNSLKPEDTAVYYCAAYWGFFPWRAYPYDYWGQGTQVTVSS | high polyreactivity
QVQLVESGGGLVQAGGSLRLSCAASGRTFTRYTMGWYRQAPRKERELVAAITRGGTTYYADSVKGRFTISRDNAKNTVYLQMNSLKPEDTAVYYCNKRKQQSSDGYGYWGQGTQVTVSS | high polyreactivity
QVQLVESGGGLVQAGGSLRLSCAASGRTFTSNGMGWYRQAPGKERELVAAITSGTSTYYADSVKGRFTISRDNAKNTVYLQMNSLKPEDTAVYYCNKLVPRGSSYSTVIRGGGYWGQGTQVTVSS | high polyreactivity
QVQLVESGGGLVQAGGSLRLSCAASGRTFTSYAMGWYRQAPGKERELVAGISSGGSTNYADSVKGRFTISRDNAKNTVYLQMNSLKPVDTAVYYCAAGFSPGTFYAPTLAFDYWGQGTQVTVSS | low polyreactivity
QVQLVESGGGLVQAGGSLRLSCAASGRTFTSYAMGWYRQAPGKERELVAGISSGGSTNYADSVKGRFTISRDNEKNTVYLQMNSLKPEDTEVYYCAAGFSPGTYDAPTLAFDYWGQGTQVTVSS | low polyreactivity
QVQLVESGGGLVQAGGSLRLSCAASGRTFTSYAMGWYRQAPGKERELVAVITRRGGSTSYADSVKGRFTISRDNAKNTVYLQMNSLKPEDTAVYYCAAKRTWPDVKYIRYGYWGQGTQVTVSS | high polyreactivity
QVQLVESGGGLVQAGGSLRLSCAASGRTFTSYPMGWYRQAPGKERELVAAISQGGGRTYYADSVKGRFTISRDNAKNTVYLQMNSLKPEDTAVYYCNTVSLSLRYDYWGQGTQVTVSS | high polyreactivity
QVQLVESGGGLVQAGGSLRLSCAASGRTFTTNAMGSYRQAPGKERELVAAITIGDDTYYADSVKGRFTISRDNAKNTVYLQMNSLKPEDTAVYYCAADYKRVPFVTQYVSKDGYWGQGTQVTVSS | low polyreactivity
QVQLVESGGGLVQAGGSLRLSCAASGRTFTTNAMGWYRQAPGKERELVAGISYSTGRTYYADSVKGRFTISRDNAKNTVYLQMNSLKPEDTAVYYCAAYTRGYRGYYYWGQGTQVTVSS | high polyreactivity
QVQLVESGGGLVQAGGSLRLSCAASGRTFTTYAMGWYRQAPGKERELVASISGSGGSTYFADSVKGRFTISRDNAKNTVYLQMNSLKPEDTAVYYCATADYYHGGYYYPYDDYWGQGTQVTVSS | low polyreactivity
